T1: RBM15 RRM23 (UniProt Q96T37 374-529)
T1 sequence: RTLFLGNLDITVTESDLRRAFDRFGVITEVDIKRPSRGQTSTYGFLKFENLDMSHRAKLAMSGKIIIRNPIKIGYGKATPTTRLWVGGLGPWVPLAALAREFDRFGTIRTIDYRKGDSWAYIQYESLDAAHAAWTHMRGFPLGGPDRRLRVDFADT

T2: RBM15 RRM12 (UniProt Q96T37 170-451)
T2 sequence: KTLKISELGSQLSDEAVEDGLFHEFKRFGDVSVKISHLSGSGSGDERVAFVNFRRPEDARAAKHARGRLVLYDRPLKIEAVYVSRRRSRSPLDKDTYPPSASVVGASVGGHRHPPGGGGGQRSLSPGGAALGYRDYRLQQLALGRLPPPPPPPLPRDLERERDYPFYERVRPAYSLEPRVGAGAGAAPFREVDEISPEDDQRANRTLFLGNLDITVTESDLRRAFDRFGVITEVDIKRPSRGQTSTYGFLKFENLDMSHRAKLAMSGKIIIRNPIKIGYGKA

T3: RBM15 RRM1 (UniProt Q96T37 170-252)
T3 sequence: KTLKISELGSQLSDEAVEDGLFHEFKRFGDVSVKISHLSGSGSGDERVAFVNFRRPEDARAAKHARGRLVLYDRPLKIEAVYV

T4: RBM15 RRM3 (UniProt Q96T37 455-529)
T4 sequence: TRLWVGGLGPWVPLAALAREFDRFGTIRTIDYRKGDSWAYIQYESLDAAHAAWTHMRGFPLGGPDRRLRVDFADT

T5: RBM15 RRM123 (UniProt Q96T37 170-529)
T5 sequence: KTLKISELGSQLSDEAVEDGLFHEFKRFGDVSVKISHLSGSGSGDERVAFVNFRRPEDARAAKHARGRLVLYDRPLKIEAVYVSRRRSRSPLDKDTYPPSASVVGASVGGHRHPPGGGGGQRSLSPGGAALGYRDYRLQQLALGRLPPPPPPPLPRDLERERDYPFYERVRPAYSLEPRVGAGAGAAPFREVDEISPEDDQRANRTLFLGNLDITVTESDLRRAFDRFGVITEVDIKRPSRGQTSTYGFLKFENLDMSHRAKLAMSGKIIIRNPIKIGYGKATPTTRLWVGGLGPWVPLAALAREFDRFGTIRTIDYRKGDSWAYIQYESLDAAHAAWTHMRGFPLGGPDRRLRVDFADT


Columns and labels:
Assay in all cases: filter binding
RBM15 RRM23 = biological target: T1, RBM15 RRM23
RBM15 RRM12 = biological target: T2, RBM15 RRM12
RBM15 RRM1 = biological target: T3, RBM15 RRM1
RBM15 RRM3 = biological target: T4, RBM15 RRM3
RBM15 RRM123 = biological target: T5, RBM15 RRM123

Binder	Kd (RBM15 RRM23) [nM]	Kd (RBM15 RRM12) [nM]	Kd (RBM15 RRM1) [nM]	Kd (RBM15 RRM3) [nM]	Kd (RBM15 RRM123) [nM]
GGCCAACACUCUGGCCCAUCGGGGUGACGGCC (structured_RNA) [XIST A-repeat stem-loop (32nt)]	50	71	433	~100	79
GGUUCUUGAAAAGAGGACC (structured_RNA) [FIRRE RRD stem-loop (19nt)]	99	184	370	~100	~100
